Measured values as given in US20250277031A1 (BEIJING HANMI PHARMACEUTICAL, published 2025).

How the values were obtained:
Experiment in all cases: ELISA, plate coated with 1 µg/mL recombinant human protein, anti-human IgG-HRP, OD450; antibody concentration not given
[1] = target: T1, recombinant human PD1 (ACROBiosystems) (human, UniProt Q15116 25-167)
T1 construct: counted here as a CD28 family member
Experimental: (§1) Binding specificity of the chimeric anti-human CD47 mAbs was determined by ELISA. A 96-well high-adsorption ELISA plate was coated with 1 μg/mL of the recombinant human PD1, CD28, CTLA4, ICOS, BTLA, CD47, PD-L2, CD80, CD86, B7-H2, CD47, SIRPα and SIRPγ (all from ACROBiosystems), at 100 μL per well using carbonate buffer solution, pH=9.6 at 4° C. overnight. The plate was washed 5 times with PBST, and then blocked using PBST with 1% BSA, 300 μL/well, and incubated at 25° C. for 1 hour, and then washed 5 times with PBST. The chimeric anti-human CD47 mAb samples serially diluted in PBST with 1% BSA and the control CC-90002 and the isotype control were added, 100 μL/well, incubated at 25° C. for 1 hour, and then washed 5 times with PBST. The horseradish peroxidase-labeled anti-human IgG antibody (Chemicon, catalog number AP309P) diluted 1:10000 in PBST with 1% BSA was then added, 100 μL per well, and incubated at 25° C. for 1 hour. The plate was washed 5 times with PBST. The colorimetric substrate TMB was added, 100 μL/well, and developed at room temperature for 10 minutes. 1M H₂SO₄ was added, 100 μL/well, to stop the development. The absorbance at 450 nm was read on a microplate reader.

[2] = target: T2, recombinant human CD28 (ACROBiosystems) (human, UniProt P10747 19-152)
T2 construct: counted here as a CD28 family member
Experimental: as §1

[3] = target: T3, recombinant human CTLA4 (ACROBiosystems) (human, UniProt P16410 37-162, limits assumed)
T3 construct: counted here as a CD28 family member
T3 sequence (P16410 37-162 limits assumed): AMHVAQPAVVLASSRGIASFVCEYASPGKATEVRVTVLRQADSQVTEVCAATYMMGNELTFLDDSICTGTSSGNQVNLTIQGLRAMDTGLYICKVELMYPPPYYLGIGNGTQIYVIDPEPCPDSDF
Experimental: as §1

[4] = target: T4, recombinant human ICOS (ACROBiosystems) (human, UniProt Q9Y6W8 21-140, limits assumed)
T4 construct: counted here as a CD28 family member
T4 sequence (looked up): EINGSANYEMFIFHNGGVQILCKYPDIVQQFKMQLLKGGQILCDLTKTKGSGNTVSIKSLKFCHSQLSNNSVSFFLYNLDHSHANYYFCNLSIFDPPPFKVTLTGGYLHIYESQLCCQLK
Experimental: as §1

[5] = target: T5, recombinant human BTLA (ACROBiosystems) (human, UniProt Q7Z6A9 31-151, limits assumed)
T5 construct: counted here as a CD28 family member
T5 sequence (Q7Z6A9 31-151 limits assumed): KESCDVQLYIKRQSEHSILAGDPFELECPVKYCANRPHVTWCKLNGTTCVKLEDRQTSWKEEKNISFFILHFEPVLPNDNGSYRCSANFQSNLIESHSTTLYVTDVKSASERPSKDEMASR
Experimental: as §1

[6] = target: T6, recombinant human PD-L2 (ACROBiosystems) (human, UniProt Q9BQ51 20-219, limits assumed)
T6 construct: counted here as a B7 family member
T6 sequence (looked up): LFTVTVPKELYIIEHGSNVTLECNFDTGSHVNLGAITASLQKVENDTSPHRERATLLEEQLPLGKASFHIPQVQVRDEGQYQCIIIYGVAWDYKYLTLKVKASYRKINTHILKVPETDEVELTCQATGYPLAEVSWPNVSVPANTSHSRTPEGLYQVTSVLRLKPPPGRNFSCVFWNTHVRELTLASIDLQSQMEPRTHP
Experimental: as §1

[7] = target: T7, recombinant human CD80 (ACROBiosystems) (human, UniProt P33681 35-242)
T7 construct: counted here as a B7 family member
T7 sequence (looked up): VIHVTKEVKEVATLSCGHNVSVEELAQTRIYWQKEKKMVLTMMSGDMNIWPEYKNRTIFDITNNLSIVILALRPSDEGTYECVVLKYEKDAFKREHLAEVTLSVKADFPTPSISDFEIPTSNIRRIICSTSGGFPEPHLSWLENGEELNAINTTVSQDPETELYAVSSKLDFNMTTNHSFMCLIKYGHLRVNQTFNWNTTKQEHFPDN
Experimental: as §1

[8] = target: T8, recombinant human CD86 (ACROBiosystems) (human, UniProt P42081 26-247, limits assumed)
T8 construct: counted here as a B7 family member
T8 sequence (looked up): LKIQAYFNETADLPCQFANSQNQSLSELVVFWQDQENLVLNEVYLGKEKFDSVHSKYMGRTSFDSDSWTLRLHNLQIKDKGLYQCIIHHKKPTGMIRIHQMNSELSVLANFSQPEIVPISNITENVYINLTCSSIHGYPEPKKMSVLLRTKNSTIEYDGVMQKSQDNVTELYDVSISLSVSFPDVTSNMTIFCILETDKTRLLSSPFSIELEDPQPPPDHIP
Experimental: as §1

[9] = target: T9, recombinant human B7-H2 (ACROBiosystems) (human, UniProt O75144 19-258, limits assumed)
T9 construct: counted here as a B7 family member
T9 sequence (looked up): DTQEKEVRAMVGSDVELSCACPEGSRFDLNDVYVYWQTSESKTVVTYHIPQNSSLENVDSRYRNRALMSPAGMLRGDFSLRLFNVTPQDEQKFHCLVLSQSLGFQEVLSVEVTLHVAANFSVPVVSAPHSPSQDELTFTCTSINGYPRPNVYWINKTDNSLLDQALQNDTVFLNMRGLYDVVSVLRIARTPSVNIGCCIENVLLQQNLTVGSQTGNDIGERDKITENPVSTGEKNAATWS
Experimental: as §1

[10] = target: T10, recombinant human SIRPα (ACROBiosystems) (human, UniProt P78324 31-370)
T10 construct: unlabelled protein coated in the specificity ELISA
T10 sequence (P78324 31-370 limits assumed): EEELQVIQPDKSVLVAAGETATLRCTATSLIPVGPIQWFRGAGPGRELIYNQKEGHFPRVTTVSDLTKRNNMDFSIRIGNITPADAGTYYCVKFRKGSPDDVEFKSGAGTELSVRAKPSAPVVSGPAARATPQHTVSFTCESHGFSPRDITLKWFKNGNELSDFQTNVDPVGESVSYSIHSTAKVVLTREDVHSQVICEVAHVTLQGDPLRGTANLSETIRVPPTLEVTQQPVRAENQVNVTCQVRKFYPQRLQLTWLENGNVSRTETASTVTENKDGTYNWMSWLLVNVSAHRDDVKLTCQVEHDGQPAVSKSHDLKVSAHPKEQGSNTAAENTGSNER
Experimental: as §1

[11] = target: recombinant human SIRPγ (ACROBiosystems) (human, UniProt Q9P1W8 29-360, limits assumed)
recombinant human SIRPγ (ACROBiosystems), sequence (Q9P1W8 29-360 limits assumed): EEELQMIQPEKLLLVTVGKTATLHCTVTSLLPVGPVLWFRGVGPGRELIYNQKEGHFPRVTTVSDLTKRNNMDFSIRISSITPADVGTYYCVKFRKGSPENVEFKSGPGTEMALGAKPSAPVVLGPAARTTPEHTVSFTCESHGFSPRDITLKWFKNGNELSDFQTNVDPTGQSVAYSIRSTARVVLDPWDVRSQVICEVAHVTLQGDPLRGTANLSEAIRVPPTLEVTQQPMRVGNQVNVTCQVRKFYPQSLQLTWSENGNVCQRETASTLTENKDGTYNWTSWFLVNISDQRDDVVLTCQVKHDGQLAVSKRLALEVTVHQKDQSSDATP
Experimental: as §1

Measured: binding result

T1 sequence (Q15116 25-167 limits assumed): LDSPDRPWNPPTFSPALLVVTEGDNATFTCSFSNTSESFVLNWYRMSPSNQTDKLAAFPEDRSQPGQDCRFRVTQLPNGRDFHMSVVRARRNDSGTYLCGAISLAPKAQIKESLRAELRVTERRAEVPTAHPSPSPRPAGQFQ

B1: chimeric anti-human CD47 monoclonal antibody mAb-18-5 (antibody, human IgG1, kappa)
heavy: not shown
light: DIVMTQSQKFMSTSVGDRVSITCKASQNVRTSIAWYQQKSGQSPKTLIYLASNRHTGVPDRFTGSGSGTDFTLTISNVQSEDLADYFCLQHWNYPFTFGSGTKLEIKRTVAAPSVFIFPPSDEQLKSGTASVVCLLNNFYPREAKVQWKVDNALQSGNSQESVTEQDSKDSTYSLSSTLTLSKADYEKHKVYACEVTHQGLSSPVTKSFNRGEC
no binding: all assays above
